Assay results taken from patent US20140004136A1 (CENTRE NATIONAL DE LA RECHERCHE SCIENTIFIQUE, published 2014).

Tests used:
[1] = molecular target: T1, murine major histocompatibility complex class II molecule I-E^d (murine, UniProt P01904 26-216; P01915 32-225, limits assumed); assay: competition with reference peptides on transfected fibroblasts, IL-2 secretion of T hybridoma 26.1
T1 construct: whole, on cells;extracellular; Expressed on transfected fibroblasts
T1 sequence (MHC II alpha, looked up): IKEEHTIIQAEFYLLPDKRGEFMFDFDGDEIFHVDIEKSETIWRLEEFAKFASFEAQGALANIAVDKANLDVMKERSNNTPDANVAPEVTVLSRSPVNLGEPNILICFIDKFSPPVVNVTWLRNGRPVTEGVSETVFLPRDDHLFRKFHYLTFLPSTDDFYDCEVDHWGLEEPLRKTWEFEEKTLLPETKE
T1 sequence (MHC II beta, looked up): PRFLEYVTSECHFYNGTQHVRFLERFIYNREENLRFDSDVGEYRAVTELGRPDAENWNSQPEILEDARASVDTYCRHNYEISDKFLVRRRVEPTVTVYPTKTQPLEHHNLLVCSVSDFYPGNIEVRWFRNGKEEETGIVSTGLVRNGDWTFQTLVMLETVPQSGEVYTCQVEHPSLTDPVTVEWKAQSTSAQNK

[2] = molecular target: T2, murine major histocompatibility complex class II molecule I-A^d (murine, UniProt P04228 24-218; P01921 28-226, limits assumed); assay: competition with reference peptides on transfected fibroblasts, IL-2 secretion of T hybridoma 26.2
T2 construct: whole, on cells;extracellular; Expressed on transfected fibroblasts
T2 sequence (MHC II alpha, looked up): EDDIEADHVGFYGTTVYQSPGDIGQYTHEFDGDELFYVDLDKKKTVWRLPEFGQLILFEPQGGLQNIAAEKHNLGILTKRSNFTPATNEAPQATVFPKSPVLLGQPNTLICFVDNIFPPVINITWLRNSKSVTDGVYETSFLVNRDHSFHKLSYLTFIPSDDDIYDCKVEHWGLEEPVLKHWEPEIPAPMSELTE
T2 sequence (MHC II beta, looked up): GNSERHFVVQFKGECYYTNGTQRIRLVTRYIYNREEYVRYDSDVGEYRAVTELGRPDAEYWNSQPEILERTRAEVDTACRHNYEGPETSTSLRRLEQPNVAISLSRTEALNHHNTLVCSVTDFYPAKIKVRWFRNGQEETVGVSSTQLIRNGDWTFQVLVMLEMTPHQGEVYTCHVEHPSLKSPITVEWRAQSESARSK

[3] = molecular target: T3, murine major histocompatibility complex class II molecule I-A^k (murine, UniProt P01910 24-218; P06343 28-224, limits assumed); assay: competition with reference peptides on transfected fibroblasts, IL-2 secretion of T hybridoma E7E9
T3 construct: whole, on cells;extracellular; Expressed on transfected fibroblasts

Measured: binding result

B1: 131-151 peptide of the U1-70K protein (RIHMVYSKRSGKPRGYAFIEY) (peptide)
peptide: RIHMVYSKRSGKPRGYAFIEY
notes: Synthetic peptide; also called parent peptide; non-phosphorylated peptide
binds: all assays above
